# Assay results: article PMC12375108, “A repurposed AMP binding domain reveals mitochondrial protein AMPylation as a regulator of cellular metabolism” (Nature Communications, 2025)
# B1: GST-tagged E. coli hinT H101N E96S (enzyme, UniProt P0ACE7 1-119, looked up)
# chain: MAEETIFSKIIRREIPSDIVYQDDLVTAFRDISPQAPTHILIIPNILIPTVNDVSAEHEQALGRMITVAAKIAEQEGIAEDGYRLIMNTNRHGGQSVYHINMHLLGGRPLGPMLAHKGL
# notes: E. coli hinT in pGEX-rTEV, E96S made by site directed mutagenesis on the H101N form; also called GST-Ec hinT^(HN, E96S); GST-Ec hinT^E96S; not shown: GST, N-terminal, kept
# B2: E. coli hinT H101N (untagged) (enzyme, UniProt P0ACE7 1-119, looked up)
# chain: MAEETIFSKIIRREIPSDIVYQDDLVTAFRDISPQAPTHILIIPNILIPTVNDVSAEHEQALGRMITVAAKIAEQEGIAEDGYRLIMNTNRHGGQEVYHINMHLLGGRPLGPMLAHKGL
# notes: open reading frame cloned into pProEx; ATG replaces the endogenous TTG start codon; also called hinT^HN; source: E. coli BL21, purified (Ni-NTA, TEV cleavage, Superdex 75)
# Legend:
# [1] = molecular target: T1, AMPylated sucA (UniProt P0AFG3 1-933, multiple AMPylation sites, residues not given); test: BLI; GST-hinT (90 nM) immobilised on anti-GST biosensors; sucA-AMP 500 to 7.81 nM, unmodified sucA at 500 nM; 10 mM Tris pH 8, 150 mM NaCl, 0.1% Triton X-100; KD from steady-state responses, one site; conditions: both partners purified
# T1 construct: sucA, model AMPylated substrate of E. coli SelO; also called sucA-AMP; SucA-AMP; source: E. coli BL21, co-expressed with SelO V242A (pETDuet), purified (Ni-NTA)
# T1 sequence (looked up): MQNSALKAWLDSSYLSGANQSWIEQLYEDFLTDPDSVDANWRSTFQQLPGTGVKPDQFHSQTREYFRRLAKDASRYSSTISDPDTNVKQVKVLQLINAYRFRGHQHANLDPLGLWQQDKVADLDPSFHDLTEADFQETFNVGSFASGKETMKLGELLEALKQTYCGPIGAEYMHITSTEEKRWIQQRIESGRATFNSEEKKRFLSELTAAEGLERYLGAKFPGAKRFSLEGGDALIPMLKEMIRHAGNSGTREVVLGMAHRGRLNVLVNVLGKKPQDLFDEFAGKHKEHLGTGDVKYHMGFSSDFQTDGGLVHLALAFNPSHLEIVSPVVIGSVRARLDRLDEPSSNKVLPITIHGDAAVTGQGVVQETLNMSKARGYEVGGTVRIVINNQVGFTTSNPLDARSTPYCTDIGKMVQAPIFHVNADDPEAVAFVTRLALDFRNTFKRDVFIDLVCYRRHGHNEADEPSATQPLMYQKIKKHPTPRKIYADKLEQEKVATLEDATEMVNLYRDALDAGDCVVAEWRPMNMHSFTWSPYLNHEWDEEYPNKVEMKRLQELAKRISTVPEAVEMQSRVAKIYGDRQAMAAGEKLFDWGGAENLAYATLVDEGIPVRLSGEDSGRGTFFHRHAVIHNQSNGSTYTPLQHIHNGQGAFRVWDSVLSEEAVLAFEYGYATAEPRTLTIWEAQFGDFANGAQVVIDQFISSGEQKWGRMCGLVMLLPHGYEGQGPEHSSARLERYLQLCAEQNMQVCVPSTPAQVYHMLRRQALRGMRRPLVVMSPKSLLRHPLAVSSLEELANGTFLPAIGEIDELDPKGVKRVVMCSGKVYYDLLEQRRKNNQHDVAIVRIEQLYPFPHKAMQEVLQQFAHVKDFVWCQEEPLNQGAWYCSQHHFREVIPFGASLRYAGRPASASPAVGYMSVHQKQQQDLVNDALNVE
# [2] = molecular target: T2, AMPylated GlnA (glutamine synthetase), recombinant (E. coli, UniProt P0A9C5 1-469, AMPylated tyrosine at 398 (Tyr398-AMP)); test: far-Western, overlay or dot blot; dot blot: 400 ng to 25 ng of AMPylated or non-AMPylated protein spotted on nitrocellulose, probed with GST or GST-hinT at 0.125 μg/mL in TBST for 1 h, detected with α-GST; conditions: both partners purified
# T2 construct: glutamine synthetase GlnA, cloned in ppSumo; Species is stated for GlnA in general (E. coli), not for the ppSumo construct; also called GlnA-AMP; copies: 12
# T2 sequence: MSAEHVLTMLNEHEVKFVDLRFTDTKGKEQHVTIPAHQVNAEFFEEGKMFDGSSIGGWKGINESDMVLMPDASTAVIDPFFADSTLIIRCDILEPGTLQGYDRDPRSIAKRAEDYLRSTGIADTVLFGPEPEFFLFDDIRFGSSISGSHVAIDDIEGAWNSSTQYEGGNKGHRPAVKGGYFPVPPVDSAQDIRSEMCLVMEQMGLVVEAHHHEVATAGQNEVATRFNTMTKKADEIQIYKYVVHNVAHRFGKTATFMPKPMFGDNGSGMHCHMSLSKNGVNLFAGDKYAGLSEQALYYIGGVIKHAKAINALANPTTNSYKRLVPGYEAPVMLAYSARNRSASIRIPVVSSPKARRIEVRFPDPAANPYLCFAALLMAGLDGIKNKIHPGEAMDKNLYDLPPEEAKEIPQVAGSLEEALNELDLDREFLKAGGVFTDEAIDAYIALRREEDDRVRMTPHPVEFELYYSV
# [3] = molecular target: the molecule itself; test: cryo-EM structure; GlnA (4.68 mg/ml) mixed with hinT (3.29 mg/ml), 1:3 molar ratio of monomers; 10 mM Tris pH 8, 150 mM NaCl, 2 mM DTT
Binder,Kd [1] [nM],binding result [2],stoichiometry N [3]
B1,21,binds,
B2,,,2
